{"source": "patent US20080113383A1", "about": "(FIBRO GEN, published 2008)", "binders": {"B1": {"name": "DTDLDLEAQApYIPADDDFQ (peptide)", "peptide": "DTDLDLEAQAPYIPADDDFQ"}, "B2": {"name": "DTDLDLEALApYIPADDDFQ (peptide)", "peptide": "DTDLDLEALAPYIPADDDFQ"}, "B3": {"name": "DTDLDTEAYApYIPADDDFQ (peptide)", "peptide": "DTDLDTEAYAPYIPADDDFQ", "modifications": "not fully specified; printed as DTDLDTEAYApYIPADDDFQ"}, "B4": {"name": "DTDLDTEAIApYIPADDDFQ (peptide)", "peptide": "DTDLDTEAIAPYIPADDDFQ", "modifications": "not fully specified; printed as DTDLDTEAIApYIPADDDFQ"}, "B5": {"name": "DTDLDIEANApYIPADDDFQ (peptide)", "peptide": "DTDLDIEANAPYIPADDDFQ"}, "B6": {"name": "DTDLDLEASApYIPADDDFQ (peptide)", "peptide": "DTDLDLEASAPYIPADDDFQ"}, "B7": {"name": "DTDLDIEAVApYIPADDDFQ (peptide)", "peptide": "DTDLDIEAVAPYIPADDDFQ"}, "B8": {"name": "DTDLDNEALApYIPADDDFQ (peptide)", "peptide": "DTDLDNEALAPYIPADDDFQ", "modifications": "not fully specified; printed as DTDLDNEALApYIPADDDFQ"}, "B9": {"name": "DTDLDVEALApYIPADDDFQ (peptide)", "peptide": "DTDLDVEALAPYIPADDDFQ", "modifications": "not fully specified; printed as DTDLDVEALApYIPADDDFQ"}, "B10": {"name": "DTDLDAEAIApYIPADDDFQ (peptide)", "peptide": "DTDLDAEAIAPYIPADDDFQ"}, "B11": {"name": "DTDLDVEAVApYIPADDDFQ (peptide)", "peptide": "DTDLDVEAVAPYIPADDDFQ", "modifications": "not fully specified; printed as DTDLDVEAVApYIPADDDFQ"}, "B12": {"name": "DTDLDYEALApYIPADDDFQ (peptide)", "peptide": "DTDLDYEALAPYIPADDDFQ", "modifications": "not fully specified; printed as DTDLDYEALApYIPADDDFQ"}, "B13": {"name": "DTDLDHEALApYIPADDDFQ (peptide)", "peptide": "DTDLDHEALAPYIPADDDFQ"}, "B14": {"name": "DTDLDTEAFApYIPADDDFQ (peptide)", "peptide": "DTDLDTEAFAPYIPADDDFQ", "modifications": "not fully specified; printed as DTDLDTEAFApYIPADDDFQ"}}, "note": "Where no end group is shown, it is not given here.", "data": [{"biological_target": "EGLN3", "assay": "cell-based or functional assay", "units": {"Activity (%)*": "%"}, "values": [{"binder": "B1", "Activity (%)*": 39.4}, {"binder": "B2", "Activity (%)*": 119}, {"binder": "B3", "Activity (%)*": 36}, {"binder": "B4", "Activity (%)*": 19}, {"binder": "B5", "Activity (%)*": 30.4}, {"binder": "B6", "Activity (%)*": 25.1}, {"binder": "B7", "Activity (%)*": 61.3}, {"binder": "B8", "Activity (%)*": 57.6}, {"binder": "B9", "Activity (%)*": 115}, {"binder": "B10", "Activity (%)*": 25.7}, {"binder": "B11", "Activity (%)*": 49}, {"binder": "B12", "Activity (%)*": 136}, {"binder": "B13", "Activity (%)*": 55.8}, {"binder": "B14", "Activity (%)*": 24.1}]}, {"biological_target": "EGLN1", "assay": "cell-based or functional assay", "units": {"Activity (%)*": "%"}, "values": [{"binder": "B1", "Activity (%)*": 23.4}, {"binder": "B2", "Activity (%)*": 102}, {"binder": "B3", "Activity (%)*": 24.1}, {"binder": "B4", "Activity (%)*": 23.7}, {"binder": "B5", "Activity (%)*": 33.2}, {"binder": "B6", "Activity (%)*": 29.6}, {"binder": "B7", "Activity (%)*": 23.9}, {"binder": "B8", "Activity (%)*": 27.1}, {"binder": "B9", "Activity (%)*": 31.5}, {"binder": "B10", "Activity (%)*": 31.3}, {"binder": "B11", "Activity (%)*": 22.8}, {"binder": "B12", "Activity (%)*": 94.2}, {"binder": "B13", "Activity (%)*": 23.4}, {"binder": "B14", "Activity (%)*": 22.2}]}, {"biological_target": "EGLN2", "assay": "cell-based or functional assay", "units": {"Activity (%)*": "%"}, "values": [{"binder": "B1", "Activity (%)*": 19.1}, {"binder": "B2", "Activity (%)*": 102}, {"binder": "B3", "Activity (%)*": 25.6}, {"binder": "B4", "Activity (%)*": 25.3}, {"binder": "B5", "Activity (%)*": 34.4}, {"binder": "B6", "Activity (%)*": 31.6}, {"binder": "B7", "Activity (%)*": 23.8}, {"binder": "B8", "Activity (%)*": 21.4}, {"binder": "B9", "Activity (%)*": 29}, {"binder": "B10", "Activity (%)*": 24}, {"binder": "B11", "Activity (%)*": 16.6}, {"binder": "B12", "Activity (%)*": 108}, {"binder": "B13", "Activity (%)*": 21.5}, {"binder": "B14", "Activity (%)*": 28.5}]}]}
